Assay results reported in US20260242478A1 (published 2026).
Where no end group is shown, it is not given here.

B1: Phage-1898 (peptide)
peptide: AEKWCFPAWMCERP
modifications: cysteine pairing not given here; also: fused to phage pIII, sequence and linker not given here
notes: Peptide-180 library clone, tested as clonal phage supernatant; not shown: pIII of the bacteriophage to which the peptide is fused
B2: Phage-1892 (peptide)
peptide: VPKLCTPVWMCTGF
modifications: cysteine pairing not given here; also: fused to phage pIII, sequence and linker not given here
notes: as for B1
B3: Phage-1911 (peptide)
peptide: GDPWCIPAWMCMEF
B4: Phage-1908 (peptide)
peptide: WDNWCIPPWMCIGF
B5: Phage-1910 (peptide)
peptide: GDILCRPEWMCTGF
B6: Phage-1905 (peptide)
peptide: EIRLCTPSWMCMGF
modifications: cysteine pairing not given here; also: displayed as fusion to phage pIII
notes: as for B1
B7: Phage-1893 (peptide)
peptide: FDKWCIPPWMCQAL
modifications: cysteine pairing not given here; also: fused to phage pIII, sequence and linker not given here
notes: as for B1
B8: Phage-1918 (peptide)
peptide: EKIWCVPAWMCTWL
B9: Phage-1895 (peptide)
peptide: WEKMCVPSWMCHFS
modifications: cysteine pairing not given here; also: fused to phage pIII, sequence and linker not given here
notes: as for B1
B10: Phage-1917 (peptide)
peptide: IEKMCKPAWMCWAD
B11: Phage-1907 (peptide)
peptide: SAHMCIPPWMCLHT
B12: Phage-1894 (peptide)
peptide: FEKWCTPAWMCAGW
modifications: cysteine pairing not given here; also: fused to phage pIII, sequence and linker not given here
notes: as for B1
B13: Phage-1915 (peptide)
peptide: SFAWCIPPWMCEIT
B14: Phage-1891 (peptide)
peptide: LEKWCIPAWMCEWS
modifications: cysteine pairing not given here; also: fused to phage pIII, sequence and linker not given here
notes: as for B1
B15: Phage-1888 (peptide)
peptide: WSNWCTPEWMCVGF
notes: tested as crude clonal phage supernatant
B16: Phage-1921 (peptide)
peptide: VDRWCVPVWMCEGL
modifications: cysteine pairing not given here; also: displayed as fusion to phage pIII
notes: Clonal phage of the Peptide-180 library, tested as crude supernatant; not shown: fused to the pIII filament protein of the bacteriophage
B17: Phage-1896 (peptide)
peptide: VLKWCTPAWMCEIF
modifications: cysteine pairing not given here; also: fused to phage pIII, sequence and linker not given here
notes: as for B1
B18: Phage-1900 (peptide)
peptide: VSRLCIPTWMCDYS
modifications: cysteine pairing not given here; also: displayed as fusion to phage pIII
notes: as for B1
B19: Phage-1906 (peptide)
peptide: VMKWCIPEWMCYML
B20: Phage-1916 (peptide)
peptide: FTIWCIPEWMCLHE
B21: Phage-1899 (peptide)
peptide: SVKMCTPAWMCSGF
modifications: cysteine pairing not given here; also: fused to phage pIII, sequence and linker not given here
notes: as for B1
B22: Phage-1912 (peptide)
peptide: MMKWCIPTWMCEME
B23: Phage-1890 (peptide)
peptide: AIKWCIPSWMCVED
notes: tested as crude clonal phage supernatant; also called AIKWCIPSWMCVED
B24: Phage-1904 (peptide)
peptide: DVKWCIPAWMCEGF
modifications: cysteine pairing not given here; also: displayed as fusion to phage pIII
notes: as for B1
B25: Phage-1897 (peptide)
peptide: MEKLCIPAWMCDGM
modifications: cysteine pairing not given here; also: fused to phage pIII, sequence and linker not given here
notes: as for B1
B26: Phage-1901 (peptide)
peptide: TDMWCTPMWMCMGF
modifications: cysteine pairing not given here; also: displayed as fusion to phage pIII
notes: as for B1
B27: Phage-1889 (peptide)
peptide: DVMWCKPSWMCDWL
notes: as for B15
B28: Phage-1902 (peptide)
peptide: LIPWCIPAWMCTSD
modifications: cysteine pairing not given here; also: displayed as fusion to phage pIII
notes: as for B1
B29: Phage-1914 (peptide)
peptide: VIKWCTPAWMCTAL
B30: Phage-1887 (peptide)
peptide: LDHWCFPMWMCTGF
notes: as for B15
B31: Phage-1913 (peptide)
peptide: ESIRCIPLWMCEGF
B32: Phage-1920 (peptide)
peptide: GEYWCIPSWMCQLY
B33: Phage-1919 (peptide)
peptide: VSKLCIPMWMCETS
B34: Phage-1903 (peptide)
peptide: IDMRCTPNWMCIGF
modifications: cysteine pairing not given here; also: displayed as fusion to phage pIII
notes: as for B1
B35: Phage-1909 (peptide)
peptide: MMKWCTPAWMCEEA

What was measured:
[1] = biological target: T1, Anti-PSMA Fab (SEQ ID NOs: 19, 20); test: phage binding ELISA; biotinylated PSMA Fab on neutravidin plate, bound phage detected with anti-M13 HRP
T1 construct: Biotinylated and captured on neutravidin coated plates in the phage ELISA; also called 006 PSMA Fab

[2] = biological target: T1, Anti-PSMA Fab (SEQ ID NOs: 19, 20); test: phage binding ELISA on captured PSMA Fab; competitor PSMA antigen pre-incubated in the well
[3] = biological target: T2, Anti-PSMA Fab (SEQ ID NOs: 19, 20); test: phage binding ELISA; clonal phage supernatant on biotinylated PSMA Fab captured on neutravidin plates, anti-M13 HRP detection
T2 construct: Biotinylated PSMA Fab captured on neutravidin coated plates in the phage ELISA; also called 006 PSMA Fab

[4] = biological target: T2, Anti-PSMA Fab (SEQ ID NOs: 19, 20); test: phage binding ELISA on captured PSMA Fab pre-incubated with PSMA antigen as competitor, anti-M13 HRP detection
[5] = biological target: T3, Anti-PSMA Fab (SEQ ID NOs: 19, 20); test: phage binding ELISA; biotinylated PSMA Fab on neutravidin plate pre-incubated with PSMA antigen (competitor), anti-M13 HRP detection;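 note: competition ELISA where clonal phage supernatants were added to wells preincubated with PSMA antigen or with blocking buffer only as control, bound phage read via HRP-coupled anti-M13 antibody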
T3 construct: In the panning ELISA the Fab was biotinylated and captured on neutravidin coated plates; also called 006 PSMA Fab

[6] = biological target: T3, Anti-PSMA Fab (SEQ ID NOs: 19, 20); test: phage binding ELISA; biotinylated PSMA Fab on neutravidin plate, clonal phage supernatant, anti-M13 HRP detection;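 note: wells were preincubated with blocking buffer either containing PSMA antigen or without it before crude phage supernatant was added, briefly incubated, then washed prior to detection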
[7] = biological target: T4, Anti-PSMA Fab (SEQ ID NOs: 19, 20) (biotinylated (site not stated)); test: phage ELISA; biotinylated PSMA Fab on neutravidin plate, clonal phage supernatant, anti-M13 HRP detection;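 note: wells preincubated with PSMA antigen in blocking buffer or with blocking buffer only before clonal phage were added for a short incubation, then bound phage detected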
T4 construct: also called 006 PSMA Fab

[8] = biological target: T4, Anti-PSMA Fab (SEQ ID NOs: 19, 20); test: phage ELISA; biotinylated PSMA Fab on neutravidin plate, wells pre-incubated with PSMA antigen as competitor, anti-M13 HRP detection

Row | Binder | Anti-PSMA Fab (SEQ ID NOs: 19, 20) signal [1] | Anti-PSMA Fab signal in the presence of PSMA [2] | Anti-PSMA Fab (SEQ ID NOs: 19, 20) signal [3] | Anti-PSMA Fab signal in the presence of PSMA [4] | further results
1 | B1 | 2.03 | 0.0803 | – | – | –
2 | B2 | 2.04 | 0.0783 | – | – | –
3 | B3 | – | – | 2.01 | 0.088 | –
4 | B4 | – | – | 2.02 | 0.186 | –
5 | B5 | – | – | 2.01 | 0.111 | –
6 | B6 | 2.02 | 0.0792 | – | – | –
7 | B7 | 2.04 | 0.112 | – | – | –
8 | B8 | – | – | 1.99 | 0.121 | –
9 | B9 | 2.03 | 0.0735 | – | – | –
10 | B10 | – | – | 2 | 0.0706 | –
11 | B11 | – | – | 2.02 | 0.133 | –
12 | B12 | 2.04 | 0.0792 | – | – | –
13 | B13 | – | – | 2 | 0.127 | –
14 | B14 | 2.04 | 0.113 | – | – | –
15 | B15 | – | – | – | – | Anti-PSMA Fab signal in the presence of PSMA [5]: 0.0814; Anti-PSMA Fab (SEQ ID NOs: 19, 20) signal [6]: 2.05
16 | B16 | – | – | – | – | Phage binding ELISA, Anti-PSMA Fab (SEQ ID NOs: 19, 20) signal [7]: 1.99; Phage binding ELISA, Anti-PSMA Fab signal in the presence of PSMA [8]: 0.124
17 | B17 | 2.03 | 0.141 | – | – | –
18 | B18 | 2.03 | 0.0757 | – | – | –

Row | Binder | Anti-PSMA Fab (SEQ ID NOs: 19, 20) signal [1] | Anti-PSMA Fab signal in the presence of PSMA [2] | Anti-PSMA Fab (SEQ ID NOs: 19, 20) signal [3] | Anti-PSMA Fab signal in the presence of PSMA [4] | further results
19 | B19 | – | – | 2.02 | 0.204 | –
20 | B20 | – | – | 2 | 0.0999 | –
21 | B21 | 2.03 | 0.0752 | – | – | –
22 | B22 | – | – | 2 | 0.132 | –
23 | B23 | – | – | – | – | Anti-PSMA Fab signal in the presence of PSMA [5]: 0.0876; Anti-PSMA Fab (SEQ ID NOs: 19, 20) signal [6]: 2.04
24 | B24 | 2.02 | 0.105 | – | – | –
25 | B25 | 2.03 | 0.279 | – | – | –
26 | B26 | 2.03 | 0.0829 | – | – | –
27 | B27 | – | – | – | – | Anti-PSMA Fab signal in the presence of PSMA [5]: 0.127; Anti-PSMA Fab (SEQ ID NOs: 19, 20) signal [6]: 2.04
28 | B28 | 2.03 | 0.0863 | – | – | –
29 | B29 | – | – | 2 | 0.0733 | –
30 | B30 | – | – | – | – | Anti-PSMA Fab signal in the presence of PSMA [5]: 0.233; Anti-PSMA Fab (SEQ ID NOs: 19, 20) signal [6]: 2.05
31 | B31 | – | – | 2 | 0.0894 | –
32 | B32 | – | – | 1.99 | 0.179 | –
33 | B33 | – | – | 1.99 | 0.064 | –
34 | B34 | 2.03 | 0.081 | – | – | –
35 | B35 | – | – | 2.01 | 0.0691 | –
